Measured values taken from US20030219386.

Molecular target: soluble recombinant uPAR (suPAR), expressed in Drosophila S2 cells (UniProt Q03405)
Sequence (Q03405 23-299): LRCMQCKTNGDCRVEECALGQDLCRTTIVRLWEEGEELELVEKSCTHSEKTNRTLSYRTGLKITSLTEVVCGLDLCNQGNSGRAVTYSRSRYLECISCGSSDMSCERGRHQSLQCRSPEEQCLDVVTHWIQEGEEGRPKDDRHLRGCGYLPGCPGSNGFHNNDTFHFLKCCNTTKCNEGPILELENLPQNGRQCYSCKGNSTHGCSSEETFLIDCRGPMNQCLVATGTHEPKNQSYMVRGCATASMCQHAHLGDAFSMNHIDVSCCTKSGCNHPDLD

Substance: recombinant human single chain urokinase plasminogen activator (scuPA), wild-type, aa1-411 of the mature human sequence, expressed in Drosophila S2 cells
- activity of scuPA in complex with suPAR: scuPA prepared in this manner was active in complex with suPAR as well as when activated by plasmin
